Measured values as given in patent US20200231681A1 (CHONG KUN DANG PHARMACEUTICAL, published 2020).

Tests used:
[1] = molecular target: T1, human PDGF Rβ Fc chimera (R&D systems, 385-PR_CF) (human, UniProt P09619 33-530); assay: indirect ELISA, hu8C4 at 0.010 nM
Method: (§1) Each antigen was diluted in 0.05 M carbonate-bicarbonate (Sigma, C3041) buffer at a concentration of 1 μg/ml, after which the resulting antigen was added into each well of a 96-well plate (Corning, #2592), such that the resulting plate was coated at 4° C. overnight. The plate was washed once with TBS-T, after which TBS-T containing 4%—skim milk was added by 200 μl into each well of the resulting plate in order to inhibit a non-specific binding, such that the resulting plate was reacted at 37° C. for 1 hour. Then, the plate was washed once with TBS-T buffer, after which a primary antibody was sequentially diluted in TBS-T buffer containing 2%—skim milk from a highest concentration of 30 nM to 0.002 nM, such that the resulting antibody was added by 100 μk into each well, thus being reacted at 37° C. for 2 hours. After being washed three times with TBS-T buffer, an anti-human kappa light chains-peroxidase (Sigma, A7164) was diluted at a ratio of 1:5000 as a secondary antibody, after which the resulting antibody was added by 100 μl into each well, thus being reacted at 37° C. for 1 hour. Then, after being washed three times with TBS-T buffer, TMB solution (Sigma, T4444) was added by 100 μl into each well to carry out an color developing reaction, after which 2 N […] solution was added by 50 μl into each well to stop the reaction. An optical density was measured based on a value at a wavelength of 450 nm by using a microplate reader and a reference wavelength of 570 nm was used.

[2] = molecular target: T2, human MSP R/Ron (R&D systems, 1947-MS-050) (human, UniProt Q04912 25-571, limits assumed); assay: indirect ELISA, hu8C4 at 0.010 nM
Method: as §1

[3] = molecular target: T3, human VEGF R2 Fc chimera (R&D systems, 357-KD_CF) (human, UniProt P35968 20-764); assay: indirect ELISA, hu8C4 at 0.010 nM
T3 construct: also called VEGFR R2
Method: as §1

[4] = molecular target: T4, human IGF-I R (R&D systems, 391-GR-050) (human, UniProt P08069 31-932); assay: indirect ELISA, hu8C4 at 0.010 nM
Method: as §1

[5] = molecular target: T1, human PDGF Rβ Fc chimera (R&D systems, …); assay: indirect ELISA, hu8C4 at 0.240 nM
Method: as §1

[6] = molecular target: T2, human MSP R/Ron (R&D systems, …); assay: indirect ELISA, hu8C4 at 0.240 nM
Method: as §1

[7] = molecular target: T3, human VEGF R2 Fc chimera (R&D systems, …); assay: indirect ELISA, hu8C4 at 0.240 nM
Method: as §1

[8] = molecular target: T4, human IGF-I R (R&D systems, 391-GR-050); assay: indirect ELISA, hu8C4 at 0.240 nM
Method: as §1

[9] = molecular target: T1, human PDGF Rβ Fc chimera (R&D systems, …); assay: indirect ELISA, hu8C4 at 0.002 nM
Method: as §1

[10] = molecular target: T2, human MSP R/Ron (R&D systems, …); assay: indirect ELISA, hu8C4 at 0.002 nM
Method: as §1

[11] = molecular target: T3, human VEGF R2 Fc chimera (R&D systems, …); assay: indirect ELISA, hu8C4 at 0.002 nM
Method: as §1

[12] = molecular target: T4, human IGF-I R (R&D systems, 391-GR-050); assay: indirect ELISA, hu8C4 at 0.002 nM
Method: as §1

[13] = molecular target: T5, human c-Met Fc chimera (R&D systems, 358-MT_CF) (human, UniProt P08581 25-932); assay: indirect ELISA, hu8C4 at 0.002 nM
T5 construct: extracellular domain; also called human c-Met (R&D Systems, 358-MT)
Method: as §1

[14] = molecular target: T1, human PDGF Rβ Fc chimera (R&D systems, …); assay: indirect ELISA, hu8C4 at 0.048 nM
Method: as §1

[15] = molecular target: T2, human MSP R/Ron (R&D systems, …); assay: indirect ELISA, hu8C4 at 0.048 nM
Method: as §1

[16] = molecular target: T4, human IGF-I R (R&D systems, 391-GR-050); assay: indirect ELISA, hu8C4 at 0.048 nM
Method: as §1

[17] = molecular target: T5, human c-Met Fc chimera (R&D systems, …); assay: indirect ELISA, hu8C4 at 0.048 nM
Method: as §1

[18] = molecular target: T1, human PDGF Rβ Fc chimera (R&D systems, …); assay: indirect ELISA, hu8C4 at 30.000 nM
Method: as §1

[19] = molecular target: T2, human MSP R/Ron (R&D systems, …); assay: indirect ELISA, hu8C4 at 30.000 nM
Method: as §1

[20] = molecular target: T4, human IGF-I R (R&D systems, 391-GR-050); assay: indirect ELISA, hu8C4 at 30.000 nM
Method: as §1

T1 sequence (P09619 33-530, change not shown): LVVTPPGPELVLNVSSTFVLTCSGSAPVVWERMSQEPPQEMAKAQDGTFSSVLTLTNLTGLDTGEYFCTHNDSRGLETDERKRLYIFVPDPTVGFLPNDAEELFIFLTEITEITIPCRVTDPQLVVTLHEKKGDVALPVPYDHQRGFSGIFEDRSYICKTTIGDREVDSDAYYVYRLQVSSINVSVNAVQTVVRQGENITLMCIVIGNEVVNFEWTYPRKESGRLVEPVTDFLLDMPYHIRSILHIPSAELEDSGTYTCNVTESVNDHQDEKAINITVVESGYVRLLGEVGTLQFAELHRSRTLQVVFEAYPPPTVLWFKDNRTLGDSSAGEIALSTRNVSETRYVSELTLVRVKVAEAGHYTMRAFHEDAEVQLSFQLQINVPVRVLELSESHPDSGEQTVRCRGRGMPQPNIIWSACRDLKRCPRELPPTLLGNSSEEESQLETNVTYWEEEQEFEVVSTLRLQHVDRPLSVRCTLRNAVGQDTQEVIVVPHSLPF
T3 sequence (P35968 20-764, change not shown): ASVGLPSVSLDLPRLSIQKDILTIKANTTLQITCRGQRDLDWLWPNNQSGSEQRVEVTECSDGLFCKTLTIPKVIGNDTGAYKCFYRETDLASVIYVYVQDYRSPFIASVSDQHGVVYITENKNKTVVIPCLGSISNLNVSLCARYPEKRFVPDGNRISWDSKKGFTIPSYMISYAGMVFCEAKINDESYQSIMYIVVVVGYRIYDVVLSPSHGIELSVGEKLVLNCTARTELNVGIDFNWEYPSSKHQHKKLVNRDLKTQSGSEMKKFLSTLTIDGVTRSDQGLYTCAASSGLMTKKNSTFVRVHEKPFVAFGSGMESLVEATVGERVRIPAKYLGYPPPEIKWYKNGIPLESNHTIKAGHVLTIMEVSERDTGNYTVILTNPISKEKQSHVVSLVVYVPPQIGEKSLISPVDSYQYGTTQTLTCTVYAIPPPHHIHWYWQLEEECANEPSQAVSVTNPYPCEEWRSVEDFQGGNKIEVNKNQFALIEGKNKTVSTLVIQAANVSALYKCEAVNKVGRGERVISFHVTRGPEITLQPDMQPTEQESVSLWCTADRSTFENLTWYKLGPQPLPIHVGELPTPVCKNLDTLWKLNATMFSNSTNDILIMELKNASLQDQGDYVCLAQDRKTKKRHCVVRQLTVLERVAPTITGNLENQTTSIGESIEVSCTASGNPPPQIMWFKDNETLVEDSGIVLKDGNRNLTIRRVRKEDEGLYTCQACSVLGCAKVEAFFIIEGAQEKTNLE
T5 sequence (P08581 25-932, change not shown): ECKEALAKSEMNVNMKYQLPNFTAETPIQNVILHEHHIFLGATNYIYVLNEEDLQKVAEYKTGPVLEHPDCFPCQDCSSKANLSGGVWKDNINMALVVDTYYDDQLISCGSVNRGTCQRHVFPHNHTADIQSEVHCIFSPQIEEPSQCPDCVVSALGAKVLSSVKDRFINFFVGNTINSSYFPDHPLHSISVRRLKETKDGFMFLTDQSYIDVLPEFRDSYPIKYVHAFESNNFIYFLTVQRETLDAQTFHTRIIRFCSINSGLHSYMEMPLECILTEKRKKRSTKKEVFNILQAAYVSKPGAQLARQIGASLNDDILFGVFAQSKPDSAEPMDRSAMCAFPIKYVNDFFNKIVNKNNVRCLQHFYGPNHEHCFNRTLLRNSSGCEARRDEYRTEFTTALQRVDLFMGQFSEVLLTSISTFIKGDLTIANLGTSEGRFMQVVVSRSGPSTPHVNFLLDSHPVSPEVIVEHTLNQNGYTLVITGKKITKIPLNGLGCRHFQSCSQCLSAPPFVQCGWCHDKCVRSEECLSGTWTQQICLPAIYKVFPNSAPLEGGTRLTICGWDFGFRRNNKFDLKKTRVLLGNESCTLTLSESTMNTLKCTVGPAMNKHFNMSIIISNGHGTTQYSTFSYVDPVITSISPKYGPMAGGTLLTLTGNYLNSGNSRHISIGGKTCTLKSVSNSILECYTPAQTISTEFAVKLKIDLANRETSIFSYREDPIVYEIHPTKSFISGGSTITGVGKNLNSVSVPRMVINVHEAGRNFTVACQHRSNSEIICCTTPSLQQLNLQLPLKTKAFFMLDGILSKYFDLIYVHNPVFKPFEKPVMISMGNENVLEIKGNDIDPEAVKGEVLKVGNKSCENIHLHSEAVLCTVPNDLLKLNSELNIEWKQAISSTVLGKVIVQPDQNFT

B1: hu8C4 (IgG1 humanized antibody having a hinge region of SEQ ID NO: 38 in hu8C4-1) (antibody, V domains shown)
VH: EVQLVESGGGLVQPGGSLRLSCAASGYTFSDYYINWVRQAPGKGLEWIGEIFPGSGNTHFSARFKGRATLSADKSKNTAYLQMNSLRAEDTAVYYCAGGDYGFLYWGQGTLVTVSS
VL: DIQMTQSPSSLSASVGDRVTITCGASENIYGALNWYQQKPGKAPKLLIYGATNLADGVPSRFSGSGSGRDFTFTISSLQPEDIATYYCQNVLSSPYTFGQGTKVEIK
notes: light chain detected with anti-human kappa; also called anti-c-Met antibody hu8C4; hu8C4 monospecific antibody
- A450 nm-A570 nm [1]: -0.01 A450 nm-A570 nm
- A450 nm-A570 nm [2]: 0 A450 nm-A570 nm
- A450 nm-A570 nm [3]: -0.01 A450 nm-A570 nm
- A450 nm-A570 nm [4]: 0 A450 nm-A570 nm
- A450 nm-A570 nm [5]: -0.01 A450 nm-A570 nm
- A450 nm-A570 nm [6]: 0 A450 nm-A570 nm
- A450 nm-A570 nm [7]: -0.02 A450 nm-A570 nm
- A450 nm-A570 nm [8]: 0 A450 nm-A570 nm
- A450 nm-A570 nm [9]: -0.01 A450 nm-A570 nm
- A450 nm-A570 nm [10]: 0 A450 nm-A570 nm
- A450 nm-A570 nm [11]: -0.01 A450 nm-A570 nm
- A450 nm-A570 nm [12]: 0 A450 nm-A570 nm
- A450 nm-A570 nm [13]: 0.05 A450 nm-A570 nm
- A450 nm-A570 nm [14]: -0.01 A450 nm-A570 nm
- A450 nm-A570 nm [15]: 0 A450 nm-A570 nm
- A450 nm-A570 nm [16]: 0 A450 nm-A570 nm
- A450 nm-A570 nm [17]: 0.76 A450 nm-A570 nm
- A450 nm-A570 nm [18]: 0.01 A450 nm-A570 nm
- A450 nm-A570 nm [19]: 0 A450 nm-A570 nm
- A450 nm-A570 nm [20]: 0 A450 nm-A570 nm
